Assay results as given in the RNAGym collection of RNA variant scans (doi:10.1093/molbev/msab373).

B1: Azoarcus group I ribozyme (parent)
chain: GUGCCUUGCGCCGGGAAACCACGCAAGGGAUGGUGUCAAAUUCGGCGAAACCUAAGCGCCCGCCCGGGCGUAUGGCAACGCCGAGCCAAGCUUCGGCGCCUGCGCCGAUGAAGGUGUAGAGACUAGACGGCACCCACCUAAGGCAAACGCUAUGGUGAAGGCAUAGUCCAGGGAGUGGCGAAAGUCACACAAACCGG

Variants of: B1
Experiment: reverse-splicing fitness (ratio to wild type); higher = more active; in vitro selection; Mg2+ level not given
Procedure, shortened: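 An in vitro group I ribozyme library with randomized positions was T7-transcribed and gel-purified. In triplicate, 10 pmol RNA in EPPS pH 7.5 was reacted with 50 pmoles of a 30-nt RNA substrate for 1 h at 37 °C across several added MgCl2 levels (1–48 mM), then stopped with EDTA. Products were reverse transcribed from a substrate-complementary primer, PCR-amplified and sequenced (HiSeq 4000). Fitness is a variant's read proportion after selection over that before, normalised to wild type.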

| Variant | reverse-splicing fitness |
| --- | --- |
| C82G A111G A145G C150U | 0.316 |
| C82G A111G A120U A145U C150G C169G U176G | 0.00197 |
| C82G A111G A120U A145U C150G C169G U176C | 0.00256 |
| C82G A111G A120U A145U C150G C169G U176A | 0.0025 |
| C82G A111G A120U A145U C150A C169G U176C | 0.00301 |
| C82G A111G A120U A145U C150A C169G U176A | 0.00229 |
| C82G A111G A120U A145U C150A C169G U176G | 0.00181 |
| C82G A111G A145U C150A C169G U176G | 0.00554 |
| C82G A111G A145U C150A C169G U176A | 0.0149 |
| C82G A111G A145U C150A C169G U176C | 0.0146 |
| C82G A111G A120U C150A C169A | 0.00558 |
| C82G A111G A120U C150A C169G | 0.00433 |
| C82G A111G A120U C150A C169U | 0.00399 |
| C82G A111G A120U A145U C150G C169U | 0.00254 |
| C82G A111G A120U A145U C150G C169G | 0.003 |
| C82G A111G A120U A145U C150G C169A | 0.00331 |
| C82G A111G A120U A145U | 0.0713 |
| C82G A111G A120U A145U U176C | 0.0296 |
| C82G A111G A120U A145U U176G | 0.00582 |
| C82G A111G A120U A145U U176A | 0.0168 |
| C82G A111G A145U C150G C169U U176G | 0.00577 |

| Variant | reverse-splicing fitness |
| --- | --- |
| C82G A111G A145U C150G C169U U176A | 0.00966 |
| C82G A111G A145U C150G C169U U176C | 0.016 |
| C82G A111G A120U A145G U176G | 0.00435 |
| C82G A111G A120U A145G U176A | 0.0143 |
| C82G A111G A120U A145G U176C | 0.0283 |
| C82G A111G A120U C150G C169U U176C | 0.00723 |
| C82G A111G A120U C150G C169U U176G | 0.00278 |
| C82G A111G A120U C150G C169U U176A | 0.00421 |
| C82G A111G A120U A145U C150U U176G | 0.00444 |
| C82G A111G A120U A145U C150U U176A | 0.0117 |
| C82G A111G A120U A145U C150U U176C | 0.0184 |
| C82G A111G A145U C150U U176G | 0.0614 |
| C82G A111G A145U C150U U176C | 0.165 |
| C82G A111G A145U C150U U176A | 0.154 |
| C82G A111G A145G C169G U176G | 0.00505 |
| C82G A111G A145G C169G U176C | 0.0231 |
| C82G A111G A145G C169G U176A | 0.016 |
| C82G A111G A145C C150A C169U | 0.0097 |
| C82G A111G A145C C150A C169G | 0.00798 |
| C82G A111G A145C C150A C169A | 0.00763 |
| C82G A111G A145C C150A U176G | 0.00955 |

| Variant | reverse-splicing fitness |
| --- | --- |
| C82G A111G A145C C150A U176A | 0.0205 |
| C82G A111G A145C C150A U176C | 0.0173 |
| C82G A111G A145G C150U C169A U176A | 0.0171 |
| C82G A111G A145G C150U C169A U176G | 0.00698 |
| C82G A111G A145G C150U C169A U176C | 0.0189 |
| C82G A111G A120U A145U C169G U176A | 0.0022 |
| C82G A111G A120U A145U C169G U176G | 0.00156 |
| C82G A111G A120U A145U C169G U176C | 0.00235 |
| C82G A111G A120U A145U C150A C169U | 0.0024 |
| C82G A111G A120U A145U C150A C169G | 0.0027 |
| C82G A111G A120U A145U C150A C169A | 0.00193 |
| C82G A111G A120U C150G C169A | 0.00761 |
| C82G A111G A120U C150G C169G | 0.00678 |
| C82G A111G A120U C150G C169U | 0.0064 |
| C82G A111G A120U A145U C150A C169U U176G | 0.00215 |
| C82G A111G A120U A145U C150A C169U U176A | 0.00305 |
| C82G A111G A120U A145U C150A C169U U176C | 0.0029 |
| C82G A111G A145U C150A U176C | 0.0339 |
| C82G A111G A145U C150A U176A | 0.03 |
| C82G A111G A145U C150A U176G | 0.0136 |
| C82G A111G A145G C150G C169U | 0.0102 |

| Variant | reverse-splicing fitness |
| --- | --- |
| C82G A111G A145G C150G C169G | 0.00774 |
| C82G A111G A145G C150G C169A | 0.00978 |
| C82G A111G A120U C169U U176C | 0.0055 |
| C82G A111G A120U C169U U176A | 0.00385 |
| C82G A111G A120U C169U U176G | 0.00158 |
| C82G A111G A145U C150U C169U U176C | 0.0137 |
| C82G A111G A145U C150U C169U U176A | 0.0134 |
| C82G A111G A145U C150U C169U U176G | 0.00549 |
| C82G A111G A145C C150G C169A U176C | 0.0105 |
| C82G A111G A145C C150G C169A U176A | 0.00983 |
| C82G A111G A145C C150G C169A U176G | 0.00615 |
| C82G A111G A145U C150U C169U | 0.0113 |
| C82G A111G A145U C150U C169G | 0.00988 |
| C82G A111G A145U C150U C169A | 0.00966 |
| C82G A111G A145C C150U C169G U176C | 0.0114 |
| C82G A111G A145C C150U C169G U176A | 0.0203 |
| C82G A111G A145C C150U C169G U176G | 0.00619 |
| C82G A111G A145C C150A C169A U176A | 0.0136 |
| C82G A111G A145C C150A C169A U176G | 0.00663 |
| C82G A111G A145C C150A C169A U176C | 0.00683 |
| C82G A111G A120U A145G C150U C169G | 0.00707 |
